Experimental data as given in US20200369737A1 (published 2020).

What was measured:
Assay in all cases: sandwich ELISA; receptor ECD/Fc chimera captured on anti-Fc plates, biotin-labeled ligand titrated, streptavidin-HRP detection
[1] = target: T1, recombinant human EGFR/Fc chimera (receptor extracellular domain/Fc chimera) (human, UniProt P00533 25-645)
T1 construct: extracellular domain; Bought from R&D Systems; Captured on plates coated with anti-Fc antibody; also called HER/Fc chimera-EGFR; HER1; not shown: Fc part (and any linker) of the purchased R&D Systems chimera

[2] = target: T2, recombinant human HER4/Fc chimera (receptor extracellular domain/Fc chimera) (human, UniProt Q15303 26-651)
T2 construct: extracellular domain; Bought from R&D Systems; Captured on plates coated with anti-Fc antibody; not shown: Fc part (and any linker) of the purchased R&D Systems chimera
T2 sequence (looked up): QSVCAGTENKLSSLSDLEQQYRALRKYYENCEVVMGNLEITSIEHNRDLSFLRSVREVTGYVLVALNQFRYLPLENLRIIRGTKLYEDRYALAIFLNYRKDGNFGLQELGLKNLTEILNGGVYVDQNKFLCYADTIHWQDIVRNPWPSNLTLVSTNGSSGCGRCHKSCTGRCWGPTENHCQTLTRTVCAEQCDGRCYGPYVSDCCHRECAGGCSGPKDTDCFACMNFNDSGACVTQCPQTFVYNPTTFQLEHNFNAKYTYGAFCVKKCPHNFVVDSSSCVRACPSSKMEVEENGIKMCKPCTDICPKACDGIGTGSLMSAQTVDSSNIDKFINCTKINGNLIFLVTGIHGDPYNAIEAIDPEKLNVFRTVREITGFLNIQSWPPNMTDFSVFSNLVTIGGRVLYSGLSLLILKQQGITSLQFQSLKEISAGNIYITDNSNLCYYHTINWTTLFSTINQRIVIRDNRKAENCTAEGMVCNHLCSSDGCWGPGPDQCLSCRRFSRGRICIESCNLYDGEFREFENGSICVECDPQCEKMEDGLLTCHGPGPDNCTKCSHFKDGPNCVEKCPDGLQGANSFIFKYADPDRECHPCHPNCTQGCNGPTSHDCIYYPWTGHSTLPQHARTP

[3] = target: T3, recombinant human HER3/Fc chimera (receptor extracellular domain/Fc chimera) (human, UniProt P21860 20-643)
T3 construct: extracellular domain; Bought from R&D Systems; Captured on plates coated with anti-Fc antibody; not shown: Fc part (and any linker) of the purchased R&D Systems chimera
T3 sequence (P21860 20-643, change not shown): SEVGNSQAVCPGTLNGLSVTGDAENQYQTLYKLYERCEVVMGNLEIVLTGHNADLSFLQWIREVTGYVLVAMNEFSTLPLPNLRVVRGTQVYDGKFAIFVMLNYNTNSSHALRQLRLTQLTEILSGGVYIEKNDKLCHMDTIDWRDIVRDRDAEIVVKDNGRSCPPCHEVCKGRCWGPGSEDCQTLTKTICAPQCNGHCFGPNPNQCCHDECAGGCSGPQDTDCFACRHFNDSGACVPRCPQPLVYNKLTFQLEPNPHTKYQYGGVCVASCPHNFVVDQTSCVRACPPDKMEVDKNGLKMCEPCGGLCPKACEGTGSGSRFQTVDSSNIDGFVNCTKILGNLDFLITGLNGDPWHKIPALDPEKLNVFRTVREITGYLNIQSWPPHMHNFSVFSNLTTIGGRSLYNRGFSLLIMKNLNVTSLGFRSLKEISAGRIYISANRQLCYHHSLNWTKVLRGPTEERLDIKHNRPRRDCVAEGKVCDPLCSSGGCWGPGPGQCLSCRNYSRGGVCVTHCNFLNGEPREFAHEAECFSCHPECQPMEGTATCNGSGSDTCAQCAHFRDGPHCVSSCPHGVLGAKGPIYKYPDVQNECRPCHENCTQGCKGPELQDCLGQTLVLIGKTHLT

B1: Pan-HER DNL B5-3M2 tagged with biotin (ligand)
chain: NSDSECPLSHDGYCLNDGVCMYTEAKDEYACNCVVGYIGERCQYYDLL
modifications: not fully specified; biotin label; paragraph 113 says derivatized at the N-terminus; paragraph 97 says B5-3M2 has two sites for biotinylation, the N terminus and K26
notes: Made in E. coli; also called tagged (biotinylated) DNL; EGF1-48 H16N, I23T, L26K, K28E, R45Y, K48L
Kd [1]: 5 nM
Kd [2]: 4 nM
Kd [3]: 6 nM
